Residue numbers refer to the chain shown, from its start. Names and notes keep the numbering of the source.

The nature of series [1]: circular dichroism of synthetic TM peptides. The format is physicochemical. The settings on record: DDM detergent solution; lipophilic environment. The method, then:
CD spectra were recorded using a J-810 spectropolarimeter (Jasco, Easton, MD, USA) in a 0.1 cm quartz cuvette. Far-UV CD spectra were collected over 190–260 nm. ITC measurements were carried out at 20 °C on an ITC (VP–ITC 200, MicroCal). 820 µM FZD6 TM5 and 165 µM FZD6 TM4 were dissolved in 0.5% DDM in water. 2 µl of TM5 peptide were injected into 260 µl TM4 during each titration. The ITC data were analyzed with the Origin 7.0 software.
Supplementary Figure 5: Circular dichroism (CD) and isothermal titration calorimetry (ITC) experiments for structural analysis of synthetic peptides resembling TM1, 4, 5 and mutant TM5 and of peptide-peptide interactions, related to Figure 3. Synthetic peptides (for sequence see Supplementary Fig. 9) resembling TM1 (a), 4 (b), 5 (c) and mutant TM5 (d) were used for CD experiments in triple distilled water with increasing DDM concentrations (0% DDM – black, 0.01% DDM – blue, 0.1% DDM – green and 0.5% DDM – red). (c)TM5 is unstructured in TDW and begins to gain structure at 0.1% DDM. It forms a clear α-helical structure in 0.5% DDM. The triple mutated TM5 (d) forms an α-helix in a much lower DDM concentration (0.01% DDM). […]

For another series, the system named is FZD6–FZD6 dimer. As to the kind of experiment: dcFRAP of V5-FZD6-mCherry/FZD6-GFP (FZD6 dimerization). The format is cell-based, human. The settings on record: HEK293; for dimerization by CL-induced decrease of mobile fraction: GFP-tagged mutant with wt V5-FZD6-mCherry, anti-V5/avidin crosslinking. The method, then: For dual color FRAP experiments, cells grown in four compartment 35 mm glass bottom dishes were washed three times with BE buffer[19] (150 mM NaCl, 2.5 mM KCl, 10 mM HEPES, 12 mM glucose, 0.5 mM CaCl2, and 0.5 mM MgCl2). Then, the cells were incubated at RT for 30 min with biotin-conjugated goat polyclonal anti-V5 antibody (Bethyl) diluted 1:100 in BE buffer supplemented with 2.5% bovine serum albumin. For antibody-mediated cross-linking, avidin was added and incubated for 15 min and washed two times with BE buffer before the experiments were performed. In Fig. 4, dcFRAP experiments are presented that employ chemical surface crosslinking to visualize assembly of FZD6 with DVL or heterotrimeric G proteins according to previously published protocols. Live cell imaging experiments were carried out using a Zeiss 710 laser scanning microscope. Images were acquired using a 40×, 1.2 NA C-Apochromat objective and the 488 nm and the 561 nm laser lines were used to excite GFP and mCherry fluorophores, respectively. Photobleaching was performed by 100% laser illumination of a 1.80 × 1.80 µm area placed over the cell plasma membrane. Fluorescence was measured pre- and post-bleach using low-intensity illumination for a total time period of 100 s. Average pixel intensity was measured using the ZEN2013 software, corrected for background fluctuations and bleaching artifacts and normalized to pre-bleached intensity. The recovered mobile fraction (F m) was calculated as follows: F m = (I P–I 0)/(I I–I 0), where I I is the initial intensity measured prior to bleaching, I 0 is the immediate fluorescence intensity post-bleaching and I P is intensity value post-bleaching. The mobile fraction was defined by the average of the fluorescence recovery assessed between time 85–101 s (including pre-bleach measurements). We excluded experiments in which the extracellularly tagged receptors were not sufficiently immobilized after the crosslinking procedure (cutoff at 40% crosslinking-induced reduction in mobile fraction). Kinetic determination of mobile fractions of crosslinked V5-FZD6-mCherry and FZD6-GFP with WNT stimulation over time were performed in one cell culture well. Measurements for each time point were performed on separate cells.
Statistical and graphical analysis was performed using Graph Pad Prism 5 software. Data were analyzed by two-tailed t-test or one-way ANOVA with Fisher’s least significant difference post hoc analysis. Curve fitting of FRAP data was done with a two-phase association nonlinear function using the least square fit. Data for receptor titration in the presence of C59 and output to P-ERK1/2 in Fig. 6h was fit to a linear regression model. All experiments were repeated at least three times in independent experiments (not representing technical replicates). For single cell analysis (dcFRAP), the number of the individual ROIs obtained from several cells in at least three independent experiments is provided in the figure legends. Data from individual ROIs are summarized for data presentation providing the sum of independent observations. Significance levels are given as: *P < 0.05; **P < 0.01; ***P < 0.001. Data in FRAP curves and bar graphs (FRAP) are presented as mean ± s.e.m.

With “KKKVWFHAVAWGTPGFLTVMLLAMNKKK [TM4, synthetic peptide of FZD6 transmembrane helix 4]”, the “secondary structure in detergent (CD)” value in series [1] is “structured and α-helical”.

B1: DVL2-MYC: overexpressed MYC-tagged DVL2 (protein, UniProt O14641 1-736, looked up)
Segment polarity protein …: MAGSSTGGGGVGETKVIYHLDEEETPYLVKIPVPAERITLGDFKSVLQRPAGAKYFFKSMDQDFGVVKEEISDDNARLPCFNGRVVSWLVSSDNPQPEMAPPVHEPRAELAPPAPPLPPLPPERTSGIGDSRPPSFHPNVSSSHENLEPETETESVVSLRRERPRRRDSSEHGAGGHRTGGPSRLERHLAGYESSSTLMTSELESTSLGDSDEEDTMSRFSSSTEQSSASRLLKRHRRRRKQRPPRLERTSSFSSVTDSTMSLNIITVTLNMEKYNFLGISIVGQSNERGDGGIYIGSIMKGGAVAADGRIEPGDMLLQVNDMNFENMSNDDAVRVLRDIVHKPGPIVLTVAKCWDPSPQAYFTLPRNEPIQPIDPAAWVSHSAALTGTFPAYPGSSSMSTITSGSSLPDGCEGRGLSVHTDMASVTKAMAAPESGLEVRDRMWLKITIPNAFLGSDVVDWLYHHVEGFPERREARKYASGLLKAGLIRHTVNKITFSEQCYYVFGDLSGGCESYLVNLSLNDNDGSSGASDQDTLAPLPGATPWPLLPTFSYQYPAPHPYSPQPPPYHELSSYTYGGGSASSQHSEGSRSSGSTRSDGGAGRTGRPEERAPESKSGSGSESEPSSRGGSLRRGGEASGTSDGGPPPSRGSTGGAPNLRAHPGLHPYGPPPGMALPYNPMMVVMMPPPPPPVPPAVQPPGAPPVRDLGSVPPELTASRQSFHMAMGNPSEFFVDVM
modifications: MYC tag
Regarding B1, the “effect of altered DVL level on FZD6 dimer formation” value in the series with FZD6–FZD6 dimer (V5-FZD6-mCherry/FZD6-GFP, pan-DVL siRNA or overexpressed DVL2-MYC) is “Absence of a role for DVL and G proteins in FZD6 dimer formation”.

B2: FZD6 dimer control mutant: FZD6 with D365E, R368K, Y369F (protein)
chain: HSLFTCEPITVPRCMKMAYNMTFFPNLMGHYDQSIAAVEMEHFLPLANLECSPNIETFLCKAFVPTCIEQIHVVPPCRKLCEKVYSDCKKLIDTFGIRWPEELECDRLQYCDETVPVTFDPHTEFLGPQKKTEQVQRDIGFWCPRHLKTSGGQGYKFLGIDQCAPPCPNMYFKSDELEFAKSFIGTVSIFCLCATLFTFLTFLIDVRRFRYPERPIIYYSVCYSIVSLMYFIGFLLGDSTACNKADEKLELGDTVVLGSQNKACTVLFMLLYFFTMAGTVWWVILTITWFLAAGRKWSCEAIEQKAVWFHAVAWGTPGFLTVMLLAMNKVEGDNISGVCFVGLYDLEASKFFVLLPLCLCVFVGLSLLLAGIISLNHVRQVIQHDGRNQEKLKKFMIRIGVFSGLYLVPLVTLLGCYVYEQVNRITWEITWVSDHCRQYHIPCPYQAKAKARPELALFMIKYLMTLIVGISAVFWVGSKKTCTEWAGFFKRNRKRDPISESRRVLQESCEFFLKHNSKVKHKKKHYKPSSHKLKVISKSMGTSTGATANHGTSAVAITSHDYLGQETLTEIQTSPETSMREVKADGASTPRLREQDCGEPASPAASISRLSGEQVDGKGQAGSVSESARSEGRISPKSDITDTGLAQSNNLQVPSSSEPSSLKGSTSLLVHPVSGVRKEQGGGCHSDT
modifications: left off: GFP, C-terminal, kept
notes: FZD6 with D365E, R368K, Y369F
Regarding B2, the “dimerization by CL-induced decrease of mobile fraction” value in the series on FZD6–FZD6 dimer is “maintained the intrinsic ability of FZD6 to form dimers”.

B3: FZD6 F337A mutant: FZD6 with F337A mutation on TM4 (protein)
chain: B2 chain with F319A, E347D, K350R, F351Y
With B3, the “dimerization by CL-induced decrease of mobile fraction” value in the series on FZD6–FZD6 dimer is reported as “exhibited a reduced ability to dimerize”.

These data come from publication PMC5548745, “Agonist-induced dimer dissociation as a macromolecular step in G protein-coupled receptor signaling” (Nature Communications, 2017).
